According to patent US20100144634A1 (published 2010):

How the values were obtained:
[1] = target: T1, von Willebrand factor (VWF), purified plasma-derived, multimeric, native (UniProt P04275 764-2813); assay: pull-down on VWF-Affi-gel 10, western blot with anti-V5 (FIG. 5B); the microtiter result is given with a literature citation
T1 construct: mature; human is implied; also called pvWF; plasma VWF
Method: FIG. 5. Binding of ADAMTS13 (or variants) to VWF immobilized on solid surfaces. A. Binding of ADAMTS13 and variants to VWF immobilized on a microtiter plate: FL-A13, delCUB and MDTCS (0-200 nM) were incubated without (control) or with VWF (10 μg/ml, 100 μl/well) immobilized on a microtiter plate for 1 h. The bound ADAMTS13 and variants were determined by mouse anti-V5 IgG, followed by rabbit anti-mouse IgG, peroxidase-conjugated and OPD-H₂O₂. The KD (S) was determined by fitting the data into non-linear regression. B. Binding of ADAMTS13 and variants to immobilized VWF on Affi-gel 10: FL-A13, delCUB, MDTCS and metalloprotease domain (M) (˜50 nM) were incubated at 37° C. for 1 h without (−) or with (+) VWF covalently immobilized onto the Affi-gel 10. After extensive washing with TBS and 20 mM Tris-HCl, pH 7.5, […], the bound ADAMTS13 and variants were eluted from the beads with SDS-gel sample buffer and determined by Western blot with anti-V5. The amount of input FL-A13, delCUB, and MDTCS is the same with the signal of only FL-A13 shown in lane 1 (IN).
The binding of ADAMTS13 to immobilized Affi-gel 10 was also described previously²². […] The bound FL-A13 and variants were eluted from the beads by boiling them at 100° C. for 10 min and detected by Western blotting with anti-V5 IgG as described previously^{22;24;29}.

murine vWF = target: T2, murine vWF (murine, UniProt Q8CIZ8 764-2813, limits assumed); assay: microtiter binding assay, immobilised murine vWF
T2 construct: also called immobilized murine vWF
T2 sequence (Q8CIZ8 764-2813 limits assumed): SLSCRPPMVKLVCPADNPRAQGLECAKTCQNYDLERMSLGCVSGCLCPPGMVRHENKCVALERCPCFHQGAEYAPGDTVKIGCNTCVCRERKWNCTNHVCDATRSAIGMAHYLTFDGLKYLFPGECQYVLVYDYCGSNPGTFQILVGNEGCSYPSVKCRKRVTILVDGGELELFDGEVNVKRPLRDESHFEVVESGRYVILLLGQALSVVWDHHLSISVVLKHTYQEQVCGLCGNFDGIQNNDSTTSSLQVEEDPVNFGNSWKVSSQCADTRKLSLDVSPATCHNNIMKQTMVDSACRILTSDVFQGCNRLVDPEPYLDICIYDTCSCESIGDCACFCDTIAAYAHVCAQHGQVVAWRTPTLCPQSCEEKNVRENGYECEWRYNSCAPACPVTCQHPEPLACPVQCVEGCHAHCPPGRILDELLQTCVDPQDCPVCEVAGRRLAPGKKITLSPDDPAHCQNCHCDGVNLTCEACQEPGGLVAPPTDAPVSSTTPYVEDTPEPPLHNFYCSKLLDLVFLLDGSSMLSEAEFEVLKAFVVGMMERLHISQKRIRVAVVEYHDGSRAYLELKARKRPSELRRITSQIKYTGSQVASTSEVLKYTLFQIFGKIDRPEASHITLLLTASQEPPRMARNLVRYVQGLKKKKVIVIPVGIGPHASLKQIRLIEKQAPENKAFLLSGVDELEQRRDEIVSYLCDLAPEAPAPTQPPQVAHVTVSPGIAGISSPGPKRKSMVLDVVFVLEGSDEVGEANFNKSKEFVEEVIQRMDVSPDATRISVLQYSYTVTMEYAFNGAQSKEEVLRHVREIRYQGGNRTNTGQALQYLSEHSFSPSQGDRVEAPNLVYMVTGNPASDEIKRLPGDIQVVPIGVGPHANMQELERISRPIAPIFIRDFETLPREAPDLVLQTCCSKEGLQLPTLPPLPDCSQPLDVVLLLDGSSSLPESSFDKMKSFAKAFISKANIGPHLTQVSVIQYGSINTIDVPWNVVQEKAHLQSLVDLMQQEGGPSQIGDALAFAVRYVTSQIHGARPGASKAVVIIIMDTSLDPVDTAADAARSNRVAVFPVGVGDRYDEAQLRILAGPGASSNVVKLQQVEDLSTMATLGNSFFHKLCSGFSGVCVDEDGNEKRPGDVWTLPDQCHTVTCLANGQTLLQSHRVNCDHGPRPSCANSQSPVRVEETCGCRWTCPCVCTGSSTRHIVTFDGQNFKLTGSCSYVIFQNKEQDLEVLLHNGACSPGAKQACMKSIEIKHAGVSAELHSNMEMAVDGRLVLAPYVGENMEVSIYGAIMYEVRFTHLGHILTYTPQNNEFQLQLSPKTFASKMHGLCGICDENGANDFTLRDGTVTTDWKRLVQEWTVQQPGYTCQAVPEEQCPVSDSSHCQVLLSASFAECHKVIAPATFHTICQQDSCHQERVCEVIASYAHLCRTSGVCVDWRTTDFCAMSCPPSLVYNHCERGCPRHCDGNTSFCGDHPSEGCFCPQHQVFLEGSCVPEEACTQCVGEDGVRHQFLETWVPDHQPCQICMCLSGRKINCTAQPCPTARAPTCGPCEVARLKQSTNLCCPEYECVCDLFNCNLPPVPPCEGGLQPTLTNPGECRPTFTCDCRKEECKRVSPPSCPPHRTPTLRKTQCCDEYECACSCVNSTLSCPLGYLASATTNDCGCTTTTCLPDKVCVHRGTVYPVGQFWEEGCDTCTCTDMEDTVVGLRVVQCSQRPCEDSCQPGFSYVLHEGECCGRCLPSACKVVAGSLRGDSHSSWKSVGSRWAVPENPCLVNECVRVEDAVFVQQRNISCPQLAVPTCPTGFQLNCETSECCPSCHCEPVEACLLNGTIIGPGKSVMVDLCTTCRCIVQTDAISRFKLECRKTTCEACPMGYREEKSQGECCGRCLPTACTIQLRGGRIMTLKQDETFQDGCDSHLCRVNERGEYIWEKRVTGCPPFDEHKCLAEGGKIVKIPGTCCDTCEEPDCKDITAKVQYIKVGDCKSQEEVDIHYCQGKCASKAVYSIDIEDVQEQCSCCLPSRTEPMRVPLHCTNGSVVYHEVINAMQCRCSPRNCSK

Row | Binder | binding result [1] | Kd (murine vWF) [nM]
1 | ADAMTS13 metalloprotease domain alone (enzyme, UniProt Q76LX8 75-289, looked up, domain: metalloprotease domain) AAGGILHLELLVAVGPDVFQAHQEDTERYVLTNLNIGAELLRDPSLGAQFRVHLVKMVILTEPEGAPNITANLTSSLLSVCGWSQTINPEDDTDPGHADLVLYITRFDLELPDGNRQVRGVTQLGGACSPTWSCLITEDTGFDLGVTIAHEIGHSFGLEHDGAPGSGCGPSGHVMASDGAAPRAGLAWSPCSRRQLLSLLSAGRARCVWDPPRPQ | no binding | –
2 | canine FVIII-SQ (other, UniProt O18806 20-2343, looked up, also called canine B-domain deleted factor VIII) ATRKYYLGAVELSWDYMQSDLLSALHADTSFSSRVPGSLPLTTSVTYRKTVFVEFTDDLFNIAKPRPPWMGLLGPTIQAEVYDTVVIVLKNMASHPVSLHAVGVSYWKASEGAEYEDQTSQKEKEDDNVIPGESHTYVWQVLKENGPMASDPPCLTYSYFSHVDLVKDLNSGLIGALLVCKEGSLAKERTQTLQEFVLLFAVFDEGKSWHSETNASLTQAEAQHELHTINGYVNRSLPGLTVCHKRSVYWHVIGMGTTPEVHSIFLEGHTFLVRNHRQASLEISPITFLTAQTFLMDLGQFLLFCHIPSHQHDGMEAYVKVDSCPEEPQLRMKNNEDKDYDDGLYDSDMDVVSFDDDSSSPFIQIRSVAKKHPKTWVHYIAAEEEDWDYAPSGPTPNDRSHKNLYLNNGPQRIGKKYKKVRFVAYTDETFKTREAIQYESGILGPLLYGEVGDTLLIIFKNQASRPYNIYPHGINYVTPLHTGRLPKGVKHLKDMPILPGEIFKYKWTVTVEDGPTKSDPRCLTRYYSSFINLERDLASGLIGPLLICYKESVDQRGNQMMSDKRNVILFSVFDENRSWYLTENMQRFLPNADVVQPHDPEFQLSNIMHSINGYVFDNLQLSVCLHEVAYWYILSVGAQTDFLSVFFSGYTFKHKMVYEDTLTLFPFSGETVFMSMENPGLWVLGCHNSDFRNRGMTALLKVSSCNRNIDDYYEDTYEDIPTPLLNENNVIKPRSFSQNPPVSKHHQREITVTTLQPEEDKFEYDDTFSIEMKREDFDIYGDYENQGLRSFQKKTRHYFIAAVERLWDYGMSRSPHILRNRAQSGDVQQFKKVVFQEFTDGSFTQPLYRGELNEHLGLLGPYIRAEVEDNIVVTFKNQASRPYSFYSSLISYDEDEGQGAEPRRKFVNPNETKIYFWKVQHHMAPTKDEFDCKAWAYFSDVDLEKDVHSGLIGPLLICRSNTLNPAHGRQVTVQEFALVFTIFDETKSWYFTENLERNCRAPCNVQKEDPTLKENFRFHAINGYVKDTLPGLVMAQDQKVRWYLLSMGSNENIHSIHFSGHVFTVRKKEEYKMAVYNLYPGVFETVEMLPSQVGIWRIECLIGEHLQAGMSTLFLVYSKKCQTPLGMASGHIRDFQITASGQYGQWAPKLARLHYSGSINAWSTKDPFSWIKVDLLAPMIIHGIMTQGARQKFSSLYVSQFIIMYSLDGNKWHSYRGNSTGTLMVFFGNVDSSGIKHNIFNPPIIAQYIRLHPTHYSIRSTLRMELLGCDFNSCSMPLGMESKAISDAQITASSYLSSMLATWSPSQARLHLQGRTNAWRPQANNPKEWLQVDFRKTMKVTGITTQGVKSLLISMYVKEFLISSSQDGHNWTLFLQNGKVKVFQGNRDSSTPVRNRLEPPLVARYVRLHPQSWAHHIALRLEVLGCDTQQPA | – | ~1.7
